Test results published in patent US20090068174A1, “THERAPEUTIC ALKALINE PROTEASE COMPOSITIONS AND USE IN FACILITATING THE TRANSPORT OF AGENTS ACROSS THE GASTROINTESTINAL MUCOSAL LINING” (Kansas University Medical Center Research Institute, Inc., priority 2007, published 2009).
Entries after “also recorded” stand apart in the source; their conditions may differ.

Tests used:
[1] = system: Salmon protamine; experiment: Hydrolysis of salmon protamine sulfate (ninhydrin assay); type: biochemical; conditions: 20 mM Tris-HCl, pH 7 or 8, 30 min at 37° C.
Description: Specific activity of the purified enzymes was determined by measuring hydrolysis of protamine sulfate and D-val-leu-lys-pNA. For the former, enzyme-substrate mixtures were prepared in 20 mM Tris-HCl, pH 7 or 8, and incubated for 30 min at 37° C. After precipitation with 14% trichloroacetic acid and removal of precipitated protein by centrifugation, the reaction mixtures were diluted in 500 mM sodium citrate buffer, pH 5, combined with 2% ninhydrin and boiled for 30 min. After dilution in 50% isopropanol, absorbance was measured at 570 nm wavelength, and results were referenced to leucine as a standard. Hydrolysis of D-val-leu-lys-pNA in 20 mM Tris-HCl buffer, pH 7, was determined by measuring absorbance at 405 nm wavelength every 10 sec over 10 min and calculating the change in absorbance (mOD units) per min per μg protein.
Protamine sulfate from salmon (Sigma, St. Louis, Mo.): 1% (10 mg/ml) solution in reaction buffer. Fushima et al use 2% and denature the protein by boiling for 30 min in 100 mM phosphate buffer, pH 7.0. […]
Procedure • 1. […] Read Absorbance at 570 nm (purple color) and calculate nanomoles by reference to a standard curve prepared with leucine. […] Activity of enzyme is expressed as nanomoles of leucine equivalents released per milligram of protein (endpoint assay) or nanomoles of leucine equivalents/min/μg protein (kinetic assay). • 10. […]

[2] = target: T1, mouse recombinant IFN-γ (Mus musculus, UniProt P01580); experiment: Bioactivity of protease-treated mouse IFN-γ (NO production by C2C12 cells); type: cell-based
T1 sequence (P01580 23-155): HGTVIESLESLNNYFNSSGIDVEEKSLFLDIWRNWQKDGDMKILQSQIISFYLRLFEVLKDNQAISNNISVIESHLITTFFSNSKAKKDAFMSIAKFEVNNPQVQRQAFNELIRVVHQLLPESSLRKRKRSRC
Description: Effects of three purified A. oryzae proteases on the bioactivity of mouse IFN-γ: (A) protease powder prepared according to Example 1 (preparation); (B) alkaline protease; (C) 26 kDa protease; and (D) deuterolysin. 50 ng quantities of mouse recombinant IFN-γ were incubated for 24 hours at 37° C. with either buffer or 2.5-10 ng of the indicated protease: (∘) Buffer; (▴) 2.5 ng; ([…]) 5 ng; (▪) 10 ng. IFN-γ bioactivity was determined as conduction of NO production by C2C12 cells.
To evaluate the specificity of this effect, the three Aspergillus oryzae proteases were tested for their ability to inactivate mouse IFN-γ, and a different pattern was seen. […] This was an unexpected finding given the ability of alkaline protease to cause partial proteolysis of IFN-γ.

[3] = target: T1, mouse recombinant IFN-γ; experiment: Cleavage of mouse IFN-γ (Western blotting); type: biochemical; conditions: 100 ng cytokine, 37° C. overnight, Western blot
Description: Degradation of mouse recombinant TNF-α: (A) or IFN-γ (B) following treatment with: the protease powder prepared according to Example 1 (preparation), purified alkaline protease (AP); Pseudomonas elastase (E); and buffered-treated control (C). The cytokines (100 ng each) were incubated at 37° C. overnight with the indicated quantities (ng) of enzymes, and then analyzed by Western blotting for evidence of degradation. A scan of AP-treated mouse TNF-α (left-hand Western blot) showing the decreasing density of the top band as a function of alkaline protease concentration (C).
Because the anti-TNF-α used here was specific for an epitope located in the carboxyl terminus of the cytokine, the pattern of cleavage is most consistent with attack at the amino terminus of TNF-α (e.g., there is a loss of molecular mass without a loss of the epitope recognized by the antibody).

[4] = Biochemical properties of the purified proteases (Table 4): pH optimum, substrate specificity, metal requirements; conditions: established by inventors

B1: Alkaline Protease: Aspergillus oryzae alkaline protease (oryzin), SEQ ID NO: 2, purified from the protease powder of Example 1 (protein, listed as Aspergillus oryzae)
chain: MQSIKRTLLLLGAILPAVLGAPVQETRRAAEKLPGKYIVTFKPGIDEAKIQEHTTWATNIHQRSLERRGATGGDLPVGIERNYKINKFAAYAGSFDDATIEEIRKNEDVAYVEEDQIYYLDGLTTQKSAPWGLGSISHKGQQSTDYIYDTSAGEGTYAYVVDSGVNVDHEEFEGRASKAYNAAGGQHVDSIGHGTHVSGTIAGKTYGIAKKASILSVKVFQGESSSTSVILDGFNWAANDIVSKKRTSKAAINMSLGGGYSKAFNDAVENAFEQGVLSVVAAGNENSDAGQTSPASAPDAITVAAIQKSNNRASFSNFGKVVDVFAPGQDILSAWIGSSSATNTISGTSMATPHIVGLSLYLAALENLDGPAAVTKRIKELATKDWKDVKGSPNLLAYNGNA
[1]
  Specific activity, Salmon protamine: 951 nmoles Leucine/30 min./μg protein
[2]
  Effect on bioactivity of mouse IFN-γ: did not significantly affect the activity of mouse IFN-γ
[3]
  Cleavage of mouse IFN-γ: partial degrades mouse IFN-γ
[3]; listed as alkaline protease (AP)
  Cleavage of mouse IFN-γ: evidenced the same substrate specificity
[4]
  Substrate specificity: Protamine > casein,; also recorded: hemoglobin; val-leu-lys

B2: 26 kDa Protease: A. oryzae protease cloned recently by Novozyme, labeled the 26 kDa protease, SEQ ID NO: 3 (protein, listed as Aspergillus oryzae)
chain: HASADAWASSKAISSTSSPSSFKMRFISVSSLLLALAPALNAVPVEVAGSAQGLDVTLSQVGNTRIKAWKNTGSEDVTFVHLNFFKDAAPVQKVSLFRNATEVQFQGIKQRLITEGLSDDALTTLAPGATIEDEFDIASTSDLSEGGTITINSNGLVPITTDNKVTGYIPFTSNELSIDVDAAEAASVTQAVKILERRTKVTSCSGSRLSALQTALRNTVSLARAAATAAQSGSSSRFQEYFKTTSSSTRSTVAARLNAVANEAASTSSGSTTYYCSDVYGYCSSNVLAYTLPSYNIIANCDLYYSYLPALTSTCHAQDQATTTLHEFTHAPGVYSPGTDDLGYGYSAATALSASQALLNADTYALFANAVNLNC
[1]
  Specific activity, Salmon protamine: 679 nmoles Leucine/30 min./μg protein
[2]
  Effect on bioactivity of mouse IFN-γ: primarily associated with the 26 kDa protease
[4]
  Substrate specificity: protamine
